Measurements from patent US20240327497A1.
Substitutions are numbered along the chain they refer to. In names and notes the source's numbering stands. Several values for one entry are separate records, joined by “and”; a condition that tells them apart may be missing. Identical values can stand only once.

B1: canine IgGB Fc (CH2-CH3) T286F with N-terminal SASA tag (Fc fusion, part only; not given: SASA tag, not shown: another chain or arm of the molecule; small tags and cut ends)
Fc: APEMLGGPSVFIFPPKPKDTLLIARTPEVTCVVVDLDPEDPEVQISWFVDGKQMQFAKTQPREEQFNGTYRVVSVLPIGHQDWLKGKQFTCKVNNKALPSPIERTISKARGQAHQPSVYVLPPSREELSKNTVSLTCLIKDFFPPDIDVEWQSNGQQEPESKYRTTPPQLDEDGSYFLYSKLSVDKSRWQRGDTFICAVMHEALHNHYTQESLSHSPGK
B2: canine IgGB Fc (CH2-CH3) T286Y with N-terminal SASA tag (Fc fusion, part only; not given: SASA tag, not shown: another chain or arm of the molecule; small tags and cut ends)
Fc: B1 Fc with F56Y
B3: canine IgGB Fc (CH2-CH3) Y436H with N-terminal SASA tag (Fc fusion, part only; not given: SASA tag, not shown: another chain or arm of the molecule; small tags and cut ends)
Fc: B1 Fc with F56T, Y208H
B4: canine IgGB Fc (CH2-CH3) T286L with N-terminal SASA tag (Fc fusion, part only; not given: SASA tag, not shown: another chain or arm of the molecule; small tags and cut ends)
Fc: B1 Fc with F56L
B5: canine IgGB Fc (CH2-CH3) L252Y with N-terminal SASA tag (Fc fusion, part only; not given: SASA tag, not shown: another chain or arm of the molecule; small tags and cut ends)
Fc: B1 Fc with L22Y, F56T
B6: canine IgGB Fc (CH2-CH3) L252M with N-terminal SASA tag (Fc fusion, part only; not given: SASA tag, not shown: another chain or arm of the molecule; small tags and cut ends)
Fc: B1 Fc with L22M, F56T
B7: canine IgGB Fc (CH2-CH3) N434W with N-terminal SASA tag (Fc fusion, part only; not given: SASA tag, not shown: another chain or arm of the molecule; small tags and cut ends)
Fc: B1 Fc with F56T, N206W
B8: canine IgGB Fc (CH2-CH3) N434S with N-terminal SASA tag (Fc fusion, part only; not given: SASA tag, not shown: another chain or arm of the molecule; small tags and cut ends)
Fc: B1 Fc with F56T, N206S
B9: canine IgGB Fc (CH2-CH3) N434A with N-terminal SASA tag (Fc fusion, part only; not given: SASA tag, not shown: another chain or arm of the molecule; small tags and cut ends)
Fc: B1 Fc with F56T, N206A
B10: canine IgGB Fc (CH2-CH3) N434Y with N-terminal SASA tag (Fc fusion, part only; not given: SASA tag, not shown: another chain or arm of the molecule; small tags and cut ends)
Fc: B1 Fc with F56T, N206Y
B11: canine IgGB Fc (CH2-CH3) N434R with N-terminal SASA tag (Fc fusion, part only; not given: SASA tag, not shown: another chain or arm of the molecule; small tags and cut ends)
Fc: B1 Fc with F56T, N206R
B12: canine IgGB Fc (CH2-CH3) YTE variant (L252Y/A254T/T256E) with N-terminal SASA tag (Fc fusion, part only; not given: SASA tag, not shown: another chain or arm of the molecule; small tags and cut ends)
Fc: B1 Fc with L22Y, A24T, T26E, F56T
B13: canine IgGB Fc (CH2-CH3) Q311V with N-terminal SASA tag (Fc fusion, part only; not given: SASA tag, not shown: another chain or arm of the molecule; small tags and cut ends)
Fc: B1 Fc with F56T, Q81V

Target: canine FcRn (FcRn large subunit with canine beta-2-microglobulin) (canine)
Experiment: SPR pH 6.0, SASA-Fc captured on BSA, FcRn 200 nM

Kd	koff	kon	Binder
157 nM and 185 nM	0.0527 s⁻¹ and 0.061 s⁻¹	336000 M⁻¹ s⁻¹ and 330000 M⁻¹ s⁻¹	B1
69.8 nM and 116 nM		410000 M⁻¹ s⁻¹ and 1.11e+06 M⁻¹ s⁻¹	B2
447 nM and 532 nM	0.134 s⁻¹ and 0.141 s⁻¹	300000 M⁻¹ s⁻¹ and 265000 M⁻¹ s⁻¹	B3
174 nM and 208 nM	0.0565 s⁻¹ and 0.103 s⁻¹	324000 M⁻¹ s⁻¹ and 496000 M⁻¹ s⁻¹	B4

Target: canine FcRn (FcRn large subunit with canine beta-2-microglobulin) (canine)
Experiment: SPR pH 5.5, SASA-Fc captured on BSA, FcRn 200 nM

Kd	koff	kon	Binder
98.7 nM and 114 nM	0.0397 s⁻¹ and 0.041 s⁻¹	402000 M⁻¹ s⁻¹ and 358000 M⁻¹ s⁻¹	B5
869 nM and 774 nM	0.168 s⁻¹ and 0.169 s⁻¹	193000 M⁻¹ s⁻¹ and 218000 M⁻¹ s⁻¹	B6

Target: canine FcRn (FcRn large subunit with canine beta-2-microglobulin) (canine)
Experiment: SPR pH 5.5, SASA-Fc captured on BSA, FcRn 200 nM
Remark: another data set of the same source

Kd	koff	kon	Binder
40.4 nM and 75.7 nM			B7
924 nM and 1050 nM	0.207 s⁻¹ and 0.209 s⁻¹	225000 M⁻¹ s⁻¹ and 199000 M⁻¹ s⁻¹	B8
573 nM and 629 nM	0.156 s⁻¹ and 0.164 s⁻¹	272000 M⁻¹ s⁻¹ and 261000 M⁻¹ s⁻¹	B9
15.9 nM	0.00968 s⁻¹	607000 M⁻¹ s⁻¹	B10
107 nM and 159 nM	0.0524 s⁻¹ and 0.0633 s⁻¹	488000 M⁻¹ s⁻¹ and 399000 M⁻¹ s⁻¹	B11

Target: canine FcRn (FcRn large subunit with canine beta-2-microglobulin) (canine)
Experiment: SPR pH 5.5, SASA-Fc captured on BSA, FcRn 400 nM

Kd	WT KD Avg/Variant KD	koff	kon	Binder
457 nM and 494 nM	1.24 and 1.14	0.237 s⁻¹ and 0.477 s⁻¹	518000 M⁻¹ s⁻¹ and 966000 M⁻¹ s⁻¹	B9

Target: canine FcRn (FcRn large subunit with canine beta-2-microglobulin) (canine)
Experiment: SPR pH 5.5, SASA-Fc captured on BSA, FcRn 100-800 nM

Kd [nM]	koff [s⁻¹]	kon [M⁻¹ s⁻¹]	Binder
101	0.045	446000	B7
184	0.046	250000	B12
173	0.0476	275000	B5
29.1	0.0151	520000	B10
182	0.0801	440000	B11

Target: canine FcRn (FcRn large subunit with canine beta-2-microglobulin) (canine)
Experiment: SPR pH 6.0, SASA-Fc captured on BSA, FcRn 100-800 nM

Kd [nM]	koff [s⁻¹]	kon [M⁻¹ s⁻¹]	Binder
616	0.19	309000	B1
632	0.162	256000	B2
210	0.0659	314000	B12
386	0.145	375000	B3
777	0.253	325000	B4

Target: canine FcRn (FcRn large subunit with canine beta-2-microglobulin) (canine)
Experiment: SPR pH 5.5, SASA-Fc captured on BSA, FcRn 200 nM
Remark: another data set of the same source

Kd	koff	kon	Binder
372 nM and 439 nM	0.566 s⁻¹ and 0.696 s⁻¹	1.52e+06 M⁻¹ s⁻¹ and 1.59e+06 M⁻¹ s⁻¹	B13
